Reference: article PMC6079010

Molecular target: catalytic domain of KAT2A (as crystallised, apo and with succinyl-CoA)
Assay: crystal structure; apo (space group P4_(1)2_(1)2) and succinyl-CoA-complexed (P2_(1)3) crystals of the catalytic domain, grown at pH 4.6; octahedral assembly seen in both

“catalytic domain of KAT2A (as crystallised, apo and with succinyl-CoA) (domain or fragment)” gave a stoichiometry N of 24.
